Measured values taken from patent US6045793.

Biological target: [Met-(-1)]rOncG20 (Rana pipiens)

“Placental ribonuclease inhibitor (from UniProt P13489)” was tested, and the Fold Difference of IC50 (ng/ml) in rabbit reticulocyte lysate, (+)PRI against (-)PRI was 0.9 fold and the IC50 (ng/ml) of the RNase for inhibition of protein synthesis in rabbit reticulocyte lysate, (+)PRI was 24 ng/mL.
